# Experimental data taken from US20240132578A1.
# Columns and labels:
# Assay in all cases: cell-based or functional assay
# [1] = biological target: HIV-1 Env of isolate 92UG005 (HIV-1)
# [2] = biological target: HIV-1 Env of isolate MG RM-A-011 (pseudovirus) (HIV-1)
# [3] = biological target: HIV-1 Env of isolate VLGCA1 (pseudovirus) (HIV-1)
# [4] = biological target: HIV-1 Env of isolate MGRM-C-014 (subtype C), on pseudovirus (HIV-1)
# [5] = biological target: HIV-1 Env of isolate MGRM-C-024 (subtype C), on pseudovirus (HIV-1)
# [6] = biological target: HIV-1 Env of isolate MGRM-G-027 (subtype G) (HIV-1)
# [7] = biological target: HIV-1 Env of isolate MGRM-C-015 (subtype C), on pseudovirus (HIV-1)
# 4970_K22 (PGT-144) (antibody), sequence (VH): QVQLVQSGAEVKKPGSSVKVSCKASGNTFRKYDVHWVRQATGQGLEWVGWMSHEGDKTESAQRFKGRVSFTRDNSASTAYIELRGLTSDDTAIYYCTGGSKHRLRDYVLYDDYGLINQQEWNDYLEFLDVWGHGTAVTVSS
# 4970_K22 (PGT-144) (antibody), sequence (VL): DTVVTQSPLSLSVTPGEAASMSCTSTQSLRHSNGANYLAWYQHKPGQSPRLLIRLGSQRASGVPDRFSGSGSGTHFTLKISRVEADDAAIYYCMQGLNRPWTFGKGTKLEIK
# 4995_P16 (PGT-145) (antibody), sequence (VH): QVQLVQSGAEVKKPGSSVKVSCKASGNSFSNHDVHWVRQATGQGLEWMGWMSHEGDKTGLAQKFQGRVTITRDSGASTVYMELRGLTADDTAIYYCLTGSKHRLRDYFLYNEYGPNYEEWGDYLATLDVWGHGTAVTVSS
# 4995_P16 (PGT-145) (antibody), sequence (VL): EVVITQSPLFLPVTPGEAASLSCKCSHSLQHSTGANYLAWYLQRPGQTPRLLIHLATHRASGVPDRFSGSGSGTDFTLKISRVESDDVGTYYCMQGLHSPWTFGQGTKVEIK
# 4980_N08 (PGT-143) (antibody), sequence (VH): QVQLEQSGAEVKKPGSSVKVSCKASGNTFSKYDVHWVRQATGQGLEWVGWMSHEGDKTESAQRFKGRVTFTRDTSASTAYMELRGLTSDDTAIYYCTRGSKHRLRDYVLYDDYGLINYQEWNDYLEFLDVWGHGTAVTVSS
# 4980_N08 (PGT-143) (antibody), sequence (VL): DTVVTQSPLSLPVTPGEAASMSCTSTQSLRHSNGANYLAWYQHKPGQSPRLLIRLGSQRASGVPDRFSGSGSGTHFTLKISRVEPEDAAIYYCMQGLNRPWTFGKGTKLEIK
# 4995_E20 (PGT-142) (antibody), sequence (VH): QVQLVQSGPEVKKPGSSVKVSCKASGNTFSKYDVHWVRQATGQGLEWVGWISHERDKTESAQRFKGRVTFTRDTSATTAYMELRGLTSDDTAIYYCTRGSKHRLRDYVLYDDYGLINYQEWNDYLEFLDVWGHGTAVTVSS
# 4995_E20 (PGT-142) (antibody), sequence (VL): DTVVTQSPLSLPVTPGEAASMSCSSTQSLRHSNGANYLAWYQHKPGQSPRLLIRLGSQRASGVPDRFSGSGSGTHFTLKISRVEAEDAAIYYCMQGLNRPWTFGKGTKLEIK
# 4993_K13 (PGT-141) (antibody), sequence (VH): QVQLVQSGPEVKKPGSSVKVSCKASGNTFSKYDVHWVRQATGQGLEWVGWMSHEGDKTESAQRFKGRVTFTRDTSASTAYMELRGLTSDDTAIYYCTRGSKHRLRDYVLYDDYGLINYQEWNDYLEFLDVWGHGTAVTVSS
substance,measurement,setting,value
4970_K22 (PGT-144) (antibody),"IC50 (µg/mL), pseudovirus neutralization",[1],> 50 µg/mL
same,"IC50 (µg/mL), single-round pseudovirus neutralization",[2],> 50 µg/mL
same,"IC50 (µg/mL), single-round pseudovirus neutralization",[3],> 50 µg/mL
same,"IC50, single-round pseudovirus neutralization",[4],> 50 µg/mL
same,"IC50, single-round pseudovirus neutralization",[5],2.06 µg/mL
same,"IC50 (µg/mL), pseudovirus neutralization",[6],> 50 µg/mL
same,"IC50, single-round pseudovirus neutralization",[7],0.236 µg/mL
4995_E20 (PGT-142) (antibody),"IC50 (µg/mL), pseudovirus neutralization",[1],> 50 µg/mL
same,"IC50 (µg/mL), single-round pseudovirus neutralization",[2],> 50 µg/mL
same,"IC50 (µg/mL), single-round pseudovirus neutralization",[3],2.75 µg/mL
same,"IC50, single-round pseudovirus neutralization",[4],6.02 µg/mL
same,"IC50, single-round pseudovirus neutralization",[5],0.03 µg/mL
same,"IC50 (µg/mL), pseudovirus neutralization",[6],> 50 µg/mL
same,"IC50, single-round pseudovirus neutralization",[7],0.038 µg/mL
VRC01 (antibody),"IC50 (µg/mL), pseudovirus neutralization",[1],0.576 µg/mL
same,"IC50 (µg/mL), single-round pseudovirus neutralization",[2],0.273 µg/mL
same,"IC50 (µg/mL), single-round pseudovirus neutralization",[3],0.163 µg/mL
same,"IC50, single-round pseudovirus neutralization",[4],> 50 µg/mL
same,"IC50, single-round pseudovirus neutralization",[5],3.4 µg/mL
same,"IC50 (µg/mL), pseudovirus neutralization",[6],0.36 µg/mL
same,"IC50, single-round pseudovirus neutralization",[7],1.57 µg/mL
4995_P16 (PGT-145) (antibody),"IC50 (µg/mL), pseudovirus neutralization",[1],> 50 µg/mL
same,"IC50 (µg/mL), single-round pseudovirus neutralization",[2],0.484 µg/mL
same,"IC50 (µg/mL), single-round pseudovirus neutralization",[3],8.01 µg/mL
same,"IC50, single-round pseudovirus neutralization",[4],5.82 µg/mL
same,"IC50, single-round pseudovirus neutralization",[5],0.174 µg/mL
same,"IC50 (µg/mL), pseudovirus neutralization",[6],0.433 µg/mL
same,"IC50, single-round pseudovirus neutralization",[7],0.12 µg/mL
4980_N08 (PGT-143) (antibody),"IC50 (µg/mL), pseudovirus neutralization",[1],> 50 µg/mL
same,"IC50 (µg/mL), single-round pseudovirus neutralization",[2],> 50 µg/mL
same,"IC50 (µg/mL), single-round pseudovirus neutralization",[3],17.4 µg/mL
same,"IC50, single-round pseudovirus neutralization",[4],8.81 µg/mL
same,"IC50, single-round pseudovirus neutralization",[5],0.05 µg/mL
same,"IC50 (µg/mL), pseudovirus neutralization",[6],> 50 µg/mL
same,"IC50, single-round pseudovirus neutralization",[7],0.085 µg/mL
4993_K13 (PGT-141) (antibody),"IC50 (µg/mL), pseudovirus neutralization",[1],> 5 µg/mL
same,"IC50 (µg/mL), single-round pseudovirus neutralization",[2],> 50 µg/mL
same,"IC50 (µg/mL), single-round pseudovirus neutralization",[3],2.07 µg/mL
same,"IC50, single-round pseudovirus neutralization",[4],11.8 µg/mL
same,"IC50, single-round pseudovirus neutralization",[5],0.101 µg/mL
same,"IC50 (µg/mL), pseudovirus neutralization",[6],> 50 µg/mL
same,"IC50, single-round pseudovirus neutralization",[7],0.033 µg/mL
